Where two headings read alike, the source gives them in different places.
Legend:
human TSLP [1] = target: T1, human TSLP (human, UniProt Q969D9 29-159); experiment: cell-based or functional assay
human TSLP [2] = target: T1, human TSLP; experiment: ELISA, plate coated with human TSLP, test antibodies as human IgG1
Description: (§1) ELISA Screening: Monoclonal scFv antibodies were selected and subjected to ligand binding assays. The first assay was designed to identify scFv antibodies that bound human TSLP and/or cynomolgus TSLP. Briefly, a 96-well plate was coated with human TSLP or cynomolgus TSLP in PBS at 0.1 μg/well and left overnight at 4° C. Before loading the scFv antibodies, the plates were washed with TBST, blocked for 1-2 hours at 37° C. using 5% milk and washed again with TBST. Each scFv sample was first diluted to 40 μg/mL, and 150 μL was added to the first row of wells. The 40 μg/mL scFv samples were then serially diluted at a 1:3 ratio and added to the remaining wells. After incubating for an hour at 37° C., followed by washing with TBST for 6 times, 100 μl of the secondary antibody (HRP labeled mouse anti-flag (1:2500)) was added to each well. After incubation for an hour under 37° C., the plate was washed for 3 times using TBST. TMB was then added at 100 μL/well and incubated for 10-20 minutes at 37° C. 2 M H₂SO₄ was used to stop the reaction. The ELISA results (OD405) were then analyzed and the binding curves were generated by PRISM.

cynomolgus monkey TSLP [3] = target: T2, cynomolgus monkey TSLP (cynomolgus monkey, UniProt A0A7N9CAT7 29-159); experiment: ELISA, plate coated with cynomolgus monkey TSLP, test antibodies as human IgG1
T2 construct: also called cynomolgus TSLP; recombinant cynomolgus monkey TSLP
Description: as §1

human TSLP [4] = target: T1, human TSLP; experiment: cell-based or functional assay; remark: listed apart in the source
human TSLP [5] = target: T1, human TSLP; experiment: cell-based or functional assay; remark: listed apart in the source
TSLP-His = target: T3, TSLP-His (human, UniProt Q969D9 29-159, limits assumed); experiment: HTRF competition: blocking of TSLP-his binding to HEK293-Flag-hTSLPR-IL7Ra cells, IgG1
T3 construct: also called his-tagged TSLP; not shown: His-tag

human TSLP [6] = target: T1, human TSLP; experiment: ELISA, plate coated with human TSLP, test antibodies as human IgG1; remark: listed apart in the source
Description: as §1

human TSLP [7] = target: T1, human TSLP; experiment: cell-based or functional assay; remark: listed apart in the source
human TSLP [8] = target: T1, human TSLP; experiment: ELISA, plate coated with human TSLP, test antibodies as human IgG1; remark: listed apart in the source
Description: as §1

cynomolgus monkey TSLP [9] = target: T2, cynomolgus monkey TSLP; experiment: ELISA, plate coated with cynomolgus monkey TSLP, test antibodies as human IgG1; remark: listed apart in the source
Description: as §1

cynomolgus monkey TSLP [10] = target: T2, cynomolgus monkey TSLP; experiment: as above; remark: listed apart in the source
Description: as §1

human TSLP [11] = target: T1, human TSLP; experiment: ELISA, plate coated with human TSLP, test antibodies as human IgG1; remark: listed apart in the source
Description: as §1

T1 sequence (Q969D9 29-159 R127A/R130S limits assumed): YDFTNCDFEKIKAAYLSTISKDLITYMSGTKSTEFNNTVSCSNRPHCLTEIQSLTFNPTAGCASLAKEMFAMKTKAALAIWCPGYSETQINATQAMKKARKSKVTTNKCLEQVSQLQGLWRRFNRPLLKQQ
T3 sequence (Q969D9 29-159 R127A/R130S limits assumed): as above
T2 sequence (A0A7N9CAT7 entry or part of it): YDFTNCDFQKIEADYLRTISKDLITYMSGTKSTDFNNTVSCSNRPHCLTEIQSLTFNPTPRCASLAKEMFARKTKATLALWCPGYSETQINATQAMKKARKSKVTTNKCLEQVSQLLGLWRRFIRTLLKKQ

Row | IC50, inhibition of human TSLP-induced Stat5 activation (Stat5-luciferase reporter, Ba/F3 cells with hTSLPR and hIL7Ra) (human TSLP [1]) | EC50 (read off the curve) (human TSLP [2]) | EC50 (read off the curve) (cynomolgus monkey TSLP [3]) | IC50, inhibition of TSLP induced proliferation of Ba/F3-TSLPR-IL7Ra cells (CellTiter-Glo) (human TSLP [4]) | IC50, inhibition of human TSLP-induced Stat5 activation (Stat5-luciferase reporter, Ba/F3 cells with hTSLPR and hIL7Ra) (human TSLP [5]) | EC50 (read off the curve) (human TSLP [6]) | Binder | further results
1 | 0.0092 µg/mL | ~0.03 µg/mL | ~0.7 µg/mL |  |  |  | TSLP-0101 (antibody, V domains shown) VH: QVQLQESGPGLVKPSETLSLTCAVSGYSISSGYGWSWIRQPPGKGLEWIGYISYYGSISYNPSLKSRVTISRDTSKNQFSLKLSSVTAADTAVYYCARTNLLYFDSWGQGTLVTVSS VL: not shown | 
2 |  |  |  | 0.0394 µg/mL | 0.0108 µg/mL | ~0.06 µg/mL | TSLP-0108 (antibody, V domains shown) VH: QVQLQESGPGLVKPSETLSLTCAVSGYSISSGYGWSWIRQPPGKGLEWIGYISYYGSTSYNPSLKSRVTISRDTSKNQFSLKLSSVTAADTAVYYCARTNLLYFDSWGQGTLVTVSS VL: EIVMTQSPATLSLSPGERATLSCRASQSVSNNLAWYQQKPGQAPRLLIYDASSRATGIPARFSGSGSGTDFTLTISSLEPEDFAVYYCQQYSDWPEYSFGQGTKVEIK | IC50 (TSLP-His): 0.158 µg/mL
3 |  |  |  | 0.244 µg/mL | 0.0438 µg/mL | ~0.08 µg/mL | TSLP-0111 (antibody, V domains shown) VH: QVQLQESGPGLVKPSETLSLTCAVSGYSISSGYGWSWIRQPPGKGLEWIGYFSYYGSTSYNPSLKSRVTISRDTSKNQFSLKLSSVTAADTAVYYCARTNLLYFDSWGQGTLVTVSS VL: EIVMTQSPATLSLSPGERATLSCRASQSVSSNLAWYQQKPGQAPRLLIYDASSRATGIPARFSGSGSGTDFTLTISSLEPEDFAVYYCQQYSNWPQYSFGQGTKVEIK | 
4 |  |  |  | 0.214 µg/mL | 0.0308 µg/mL | ~0.08 µg/mL | TSLP-0112 (antibody, V domains shown) VH: QVQLQESGPGLVKPSETLSLTCAVSGYSISSGYGWSWIRQPPGKGLEWIGYISYYGSTSYNPSLKSRVTISRDTSKNQFSLKLSSVTAADTAVYYCARTNLLYFDYWGQGTLVTVSS VL: EIVMTQSPATLSLSPGERATLSCRASQSVSSYLAWYQQKPGQAPRLLIYDASSRATGIPARFSGSGSGTDFTLTISSLEPEDFAVYYCQQYSDWPQYSFGQGTKVEIK | 
5 | 0.0154 µg/mL | ~0.04 µg/mL | ~0.7 µg/mL |  |  |  | TSLP-0104 (antibody, V domains shown) VH: QVQLQESGPGLVKPSETLSLTCAVSGYSISSGYGWSWIRQPPGKGLEWIGYISYYGSISYNPSLKSRVTISVDTSKNQFSLKLSSVTAADTAVYYCARTNLLYFDSWGQGTLVTVSS VL: EIVMTQSPATLSLSPGERATLSCRASQSVSNNLAWYQQKPGQAPRLLIYDASSRATGIPARFSGSGSGTDFTLTISSLEPEDFAVYYCQQYSDWPQYTFGQGTKVEIK | 
6 | 0.0114 µg/mL | ~0.04 µg/mL | ~0.7 µg/mL |  |  |  | TSLP-0102 (antibody, V domains shown) VH: QVQLQESGPGLVKPSETLSLTCTVSGYSISSGYGWSWIRQPPGKGLEWIGYISYYGSISYNPSLKSRVTISRDTSKNQFSLKLSSVTAADTAVYYCARTNLLYFDSWGQGTLVTVSS VL: EIVMTQSPATLSLSPGERATLSCRASQSVSNNLAWYQQKPGQAPRLLIYDASSRATGIPARFSGSGSGTDFTLTISSLEPEDFAVYYCQQYSDWPQYTFGQGTKVEIK | 
7 | 0.0182 µg/mL | ~0.05 µg/mL | ~0.7 µg/mL |  |  |  | TSLP-0105 (antibody, V domains shown) VH: QVQLQESGPGLVKPSETLSLTCAVSGYSISSGYGWSWIRQPPGKGLEWIGYISYYGSISYNPSLKSRVTISVDTSKNQFSLKLSSVTAADTAVYYCARTNLLYFDSWGQGTLVTVSS VL: not shown | 
8 | 0.0169 µg/mL | ~0.05 µg/mL | ~0.9 µg/mL |  |  |  | TSLP-0106 (antibody, V domains shown) VH: QVQLQESGPGLVKPSETLSLTCTVSGYSISSGYGWSWIRQPPGKGLEWIGYISYYGSISYNPSLKSRVTISVDTSKNQFSLKLSSVTAADTAVYYCARTNLLYFDSWGQGTLVTVSS VL: EIVMTQSPATLSLSPGERATLSCRASQSVSNNLAWYQQKPGQAPRLLIYDASSRATGIPARFSGSGSGTDFTLTISSLEPEDFAVYYCQQYSDWPQYTFGQGTKVEIK | 
9 |  |  |  | 0.0304 µg/mL | 0.0228 µg/mL | ~0.07 µg/mL | TSLP-0109 (antibody, V domains shown) VH: QVQLQESGPGLVKPSETLSLTCAVSGYSISSGYGWSWIRQPPGKGLEWIGYISYYGSTSYNPSLKSRVTISRDTSKNQFSLKLSSVTAADTAVYYCARTNLLYFESWGQGTLVTVSS VL: EIVMTQSPATLSLSPGERATLSCRASQGISSYLAWYQQKPGQAPRLLIYDASNLQSGIPARFSGSGSGTDFTLTISSLEPEDFAVYYCQQYSNWPQYSFGQGTKVEIK | 
10 |  |  |  | 0.129 µg/mL | 0.0245 µg/mL | ~0.08 µg/mL | TSLP-0110 (antibody, V domains shown) VH: QVQLQESGPGLVKPSETLSLTCAVSGYSISSGYGWSWIRQPPGKGLEWIGYISYYGSTSYNPSLKSRVTISRDTSKNQFSLKLSSVTAADTAVYYCARTNLLYFDSWGQGTLVTVSS VL: EIVMTQSPATLSLSPGERATLSCRASQSVSSYLAWYQQKPGQAPRLLIYDTSSRATGIPARFSGSGSGTDFTLTISSLEPEDFAVYYCQQYSNWPQYSFGQGTKVEIK | 
11 |  |  |  | 0.0185 µg/mL |  |  | TSLP-0201 (antibody, V domains shown) VH: QVQLVQSGAEVKKPGSSVKVSCKASGFTFGSYGINWVRQAPGQGLEWMGVIVPLVGVTIYAEKFQGRVTITADTSTSTAYMELSSLRSEDTAVYYCARGQEYFYWYFDLWGQGTLVTVSS VL: QSALTQPPSASGSPGQSVTISCSGSSSDIGGYNRVSWYQQHPGKAPKLMIYDVSKRPSGVPDRFSGSKSGNTASLTVSGLQAEDEADYYCSSYAGTDTFILFGGGTKLTVL | IC50, inhibition of human TSLP-induced Stat5 activation (Stat5-luciferase reporter, Ba/F3 cells with hTSLPR and hIL7Ra) (human TSLP [7]): 0.00463 µg/mL; EC50 (read off the curve) (human TSLP [8]): ~0.07 µg/mL; EC50 (read off the curve) (cynomolgus monkey TSLP [9]): ~0.7 µg/mL; IC50 (TSLP-His): 0.351 µg/mL
12 |  |  |  | 0.0363 µg/mL | 0.0215 µg/mL |  | TSLP-0203 (antibody, V domains shown) VH: QVQLVQSGAEVKKPGSSVKVSCKASGFTFGSYGINWVRQAPGQGLEWLGVIVPLVGVTIYAEKFQGRVTITADTSTSTAYMELSSLRSEDTAVYYCARGQEYFYWYFDLWGQGTLVTVSS VL: QSALTQPPSASGSPGQSVTISCTGTSSDIGGYDRVSWYQQHPGKAPKLMIYGVSKRPSGVPDRFSGSKSGNTASLTVSGLQAEDEADYYCSSYASGHTFGLFGGGTKLTVL | EC50 (read off the curve) (human TSLP [8]): ~0.1 µg/mL; EC50 (read off the curve) (cynomolgus monkey TSLP [9]): ~0.3 µg/mL; IC50 (TSLP-His): 0.383 µg/mL
13 |  |  |  | 0.0422 µg/mL | 0.0189 µg/mL |  | TSLP-0204 (antibody, V domains shown) VH: QVQLVQSGAEVKKPGSSVKVSCKASGFTFGSYGINWVRQAPGQGLEWLGVIVPLVGVTIYAEKFQGRVTITADTSTSTAYMELSSLRSEDTAVYYCARGQEYFYWYFDLWGQGTLVTVSS VL: QSALTQPPSASGSPGQSVTISCTGTSSDIGGYNRVSWYQQHPGKAPKLMIYEVNKRSSGVPDRFSGSKSGNTASLTVSGLQAEDEADYYCTSYAGTDTFVLFGGGTKLTVL | EC50 (read off the curve) (human TSLP [8]): ~0.1 µg/mL; EC50 (read off the curve) (cynomolgus monkey TSLP [9]): ~0.2 µg/mL; IC50 (TSLP-His): 0.428 µg/mL
14 |  |  |  |  |  |  | TSLP-0208 (antibody, V domains shown) VH: QVQLVQSGAEVKKPGSSVKVSCKASGFTFGSYGISWVRQAPGQGLEWLGVIIPLLGVPNYAEKFQGRVTITADTSTSTAYMELSSLRSEDTAVYYCARGAEYFYWYFDLWGQGTLVTVSS VL: QSALTQPPSASGSPGQSVTISCTGSNSDIGGYNRVSWYQQHPGKAPKLMIYEISKRPSGVPDRFSGSKSGNTASLTVSGLQAEDEADYYCSSYAGTDTFVLFGGGTKLTVL | EC50 (read off the curve) (cynomolgus monkey TSLP [10]): ~0.3 µg/mL; EC50 (read off the curve) (human TSLP [11]): ~0.1 µg/mL
15 |  |  |  | 0.133 µg/mL | 0.025 µg/mL |  | TSLP-0207 (antibody, V domains shown) VH: QVQLVQSGAEVKKPGSSVKVSCKASGFTFGSYGISWVRQAPGQGLEWLGVIVPLVGVTIYAEKFQGRVTITADTSTSTAYMELSSLRSEDTAVYYCARGQEYFYWYFDLWGQGTLVTVSS VL: QSALTQPPSASGSPGQSVTISCTGTSSDIGGYNRVSWYQQHPGKAPKLMIYEFNKRPSGVPDRFSGSKSGNTASLTVSGLQAEDEADYYCSSYAGTDIFVLFGGGTKLTVL | EC50 (read off the curve) (human TSLP [11]): ~0.05 µg/mL
